The values that follow come from patent US20040214258A1.

The assay concerns the target hR.Luc-connector-DhaA.H272F-Flag fusion protein with covalently bound biotin-C18H32O4-Cl substrate (Rhodococcus rhodochrous) (UniProt P0A3G2). In words: capture on SA-coated 96-well plate through tethered biotin; captured luciferase activity measured.

A value given as a limit tells only on which side of the number the result lay.

“streptavidin (SA) coated on a solid support (from UniProt P22629 37-163)” returned an efficiency of capturing (% of Renilla luciferase activity added to the plate) of over 50%.
